The text below walks through data of patent publication US6106844A, “Immunomodulatory peptides of vespid antigen 5” (The Rockfeller University, priority 1998, dated 2000).

Assay [1] has as its target T1, r-Dol m 5.02 (Dolichovespula maculata, UniProt P10737).
T1 construct: made in house
T1 sequence (P10737 11-215): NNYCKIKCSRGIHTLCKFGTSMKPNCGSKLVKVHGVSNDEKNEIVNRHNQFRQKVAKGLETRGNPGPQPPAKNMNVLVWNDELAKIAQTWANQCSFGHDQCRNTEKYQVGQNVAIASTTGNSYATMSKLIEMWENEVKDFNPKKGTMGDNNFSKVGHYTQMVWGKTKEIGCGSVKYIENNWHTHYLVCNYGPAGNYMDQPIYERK
Description: Antibody response by direct ELISA of mice immunized with recombinant white faced hornet Ag5, wells coated with r-Dol m 5.02. The class given is in vivo. The conditions noted are these: for Half maximal Ab titer r-Dol m 5.02: week five sera after three i.p. immunizations with rDol m 5.02 and alum; for antibody responder status: alum as adjuvant. The protocol: Antibody response in mice of different haplotypes to recombinant hornet Ag5. Five strains of mice were immunized with recombinant (r) white faced hornet Ag5 and alum as adjuvant. […] The antibody titers (the reciprocal of the dilution yielding 50% of maximum signal extrapolated from ELISA curves in wells coated with r-Dol m 5.02 or n-Dol m 5.01) of these sera for n-(natural) and r-Ag5 are given in Table 3.
*Sera are from week five bleeding after three intraperitoneal
immunizations with 0.2 ml of 10 μg/ml rDol m 5.02 and alum (5 μg/ml
in 0.05 m sodium phosphate buffer, pH 6.2, on weeks 0, 2, and 4.
In general terms: In an ELISA, binding on a coated surface is turned into a signal by an enzyme label.

For assay [2], the system named is Ag5 specific spleen cells from BALB/c mice. Description: In vitro proliferation assay, spleen cells of Ag5-immunized BALB/c mice. The class given is cell-based. The conditions noted are these: spleen cells from mice immunized with rAg5; blank 3970 cpm. The protocol: FIG. 4. Stimulation index profile of BALB/c mice spleens after 4 immunizations with natural (n)-Ag5. In vitro proliferation assays were performed with peptides at three concentrations: 1×10^-5 M (open bar), 1.25×10^-6 M ("uphill" hatch), and 1.56×10^-7 M ("downhill" hatch). The corresponding concentrations of recombinant antigen 5 control were 1.0×10^-6 M, 1.25×10^-7, and 1.56×10^-8 M. The blank was 2200 cpm.
FIG. 5. Stimulation index profile of BALB/c mice spleens after 4 immunizations with recombinant (r)-Ag5. In vitro proliferation assays were performed with peptides at three concentrations: 1×10^-5 M (open bar), 1.25×10^-6 M ("uphill" hatch), and 1.56×10^-7 M ("downhill" hatch). The corresponding concentrations of recombinant Antigen 5 were 1.0×10^-6 M, 1.25×10^-7, and 1.56×10^-8 M. The blank was 4700 cpm.
FIG. 6. […] In vitro proliferation assays were performed with peptides at three concentrations: 1×10^-5 M (open bar), 1.25×10^-6 M ("uphill" hatch), and 1.56×10^-7 M ("downhill" hatch). The corresponding concentrations of recombinant Antigen 5 were 1.0×10^-6 M, 1.25×10^-7, and 1.56×10^-8 M. […]
(§1) The peptides of the invention can be tested in a proliferation assay for T cell responses. Generally, lymphocytes from a sensitized host are obtained. The host can be a mouse that has been immunized with a vespid venom antigen 5, or with a crossreactive protein, such as testes specific protein. Using techniques that are well known in the art, T lymphocyte response to the peptide can be measured in vitro. In a specific embodiment, infra, T cell responses are detected by measuring incorporation of ^3 H-thymidine, which increases with DNA synthesis associated with proliferation. Cell proliferation can also be detected using an MTT assay [Mossman, J. Immunol. Methods, 65:55-63,(1983); Niks and Otto, J. Immunol. Methods, 130:140-151 (1990)]. Alternatively, lymphokine production assays can be practiced according to the present invention. In one embodiment, lymphokine production can be assayed using immunological or co-stimulation assays [see, e.g., Fehlner et al., J. Immunol., 146:799 (1991)] or using the ELISPOT technique [Czerkinsky, et al., J. Immunol. Methods, 110:29 (1988)]. Alternatively, mRNA for lymphokines can be detected, e.g., by amplification [see Brenner, et al., Biotechniques, 7:1096 (1989)] or in situ hybridization [see, e.g., Kasaian and Biron, J. Immunol., 142:1287 (1989)]. Of particular interest are those individuals whose T cells produce lymphokines associated with IgE isotype switch events, e.g., IL-4 and IL-5 [Purkeson and Isakson, J. Exp. Med., 175:973-982 (1992)]. Also of interest are the peptide fragments of the vespid venom antigen 5 that contain epitopes recognized by T cells involved in IgE switch events. […]

The test system of assay [3] is r-Ag5 specific spleen cells from ASW/Sn mice. As to the kind of experiment: In vitro proliferation assay, spleen cells of r-Ag5-immunized ASW/Sn mice. It counts as cell-based. The conditions noted are these: spleen cells from mice immunized 5 times with rAg5; blank 5640 cpm. The protocol: FIG. 11. Stimulation index profile of ASW/sn mice spleens after 5 immunizations with r-Ag5. In vitro proliferation assays were performed with peptides at three concentrations: 1×10^-5 M (open bar), 1.25×10^-6 M ("uphill" hatch), and 1.56×10^-7 M ("downhill" hatch). The corresponding concentrations of recombinant Antigen 5 were 1.0×10^-6 M, 1.25×10^-7, and 1.56×10^-8 M. The blank was 5640 cpm.
as §1

B1: r-Ag5: recombinant white faced hornet (Dolichovespula maculata) antigen 5 form 2, Dol m 5.02 (protein)
chain: T1 sequence (P10737 11-215)
Regarding B1, the “Half maximal Ab titer r-Dol m 5.02” value in assay [1] (ASW/Sn mice (haplotype s)) is 1 × 10^5; in assay [1] (BALB/c byj mice (haplotype d)), 8 × 10^4; in assay [1] (C3H/He mice (haplotype k)), 6 × 10^3; in assay [1] (C57B1/6 mice (haplotype b)), 1 × 10^2; in assay [1] (P/J mice (haplotype p)), 2 × 10^4. Further, the antibody responder status entry is given as “high antibody responders” in assay [1] (BALB/v byj, ASW/Sn, C3H/He, and P/J mice); “poor antibody responder” in assay [1] (C57B1/6 mice). Also, the “Stimulation Index BALB/c” value in assay [2] was determined as 20.9. Further, the “Stimulation Index ASW/Sn” value in assay [3] turned out to be 15.4.
